The nature of the series: self-splicing fitness, log relative to wild type (ln ratio); higher = more splicing; Tetrahymena group I intron in knt gene, E. coli kanamycin selection, DiMSum; sequences stand for … in CUCUCU…GGAGGGAAAAGUUAUCAGGCAUGCACCUGGUAGCUAGUCUUUAAACCAAUAGAUUGCAUCGGUUUAAAAGGCAAGACCGUCAAAUUGCGGGAAAGGGGUCAACAGCCGUUCAGUACCAAGUCUCAGGGGAAACUUUGAGAUGGCCUUGCAAAGGGUAUGGUAAUAAGCUGACGGACAUGGUCCUAACCACGCAGCCAAGUCCUAAGUCAACAGAUCUUCUGUUGAUAUGGAUGCAGUUCACAGACUAAAUGUCGGUCGGGGAAGAUGUAUUCUUCUCAUAAGAUAUAGUCGGACCUCUCCUUAAUGGGAGCUAGCGGAUGAAGUGAUGCAACACUGGAGCCGCUGGGAACUAAUUUGUAUGCGAAAGUAUAUUGAUUAGUUUUGGAGUACUCGUGGUCG
In a few lines: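 Pooled colonies went to amplicon sequencing on an Illumina HiSeq 2500 after six replicate transformations. The plates were LB agar with 100 μg/mL carbenicillin, 50 μM IPTG and 0.2% rhamnose, with or without 25 μg/mL kanamycin, incubated overnight at 37°C or 30°C. The E. coli BL21(DE3) library had all eight P1ex-region intron nucleotides randomised, the intron placed in the knt kanamycin-resistance gene on pET-22b(+). DiMSum fitness is the error-weighted combination of replicate fold changes, kanamycin against none, normalised to wild type.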

Data on 38 sequences can be found in the supplement of paper PMC7877785.

± gives the uncertainty stated by the source.

Regarding UAAGAGCAAUAUUACGCUUU, the “self-splicing fitness (ln)” value was -2.81 ± 0.18 (30 °C) and -1.85 ± 0.31 (37 °C).

On to GCUCAGCAAUAUUACGGACA, for which the “self-splicing fitness (ln)” value reads like this: (30 °C) -1.25 ± 0.14; (37 °C) -0.983 ± 0.13.

On to ACAAAGCAAUAUUACGCAUA, for which the “self-splicing fitness (ln)” value is -2.12 ± 0.12 (30 °C) and -0.921 ± 0.11 (37 °C).

For UGGCAGCAAUAUUACGGGGU, the “self-splicing fitness (ln)” value reads like this: (30 °C) -3.97 ± 0.13; (37 °C) -2.62 ± 0.14.

For the sequence GCUCAGCAAUAUUACGUCAC, the “self-splicing fitness (ln)” value is -3.37 ± 0.22 (30 °C) and -2.06 ± 0.22 (37 °C).

For UACAAGCAAUAUUACGCGCA, the “self-splicing fitness (ln)” value by setting is: (30 °C) -0.13 ± 0.081; (37 °C) 0.163 ± 0.11.

As for AGGGAGCAAUAUUACGACUG, the “self-splicing fitness (ln)” value is, setting by setting: (30 °C) -2.15 ± 0.24; (37 °C) 0.0208 ± 0.21.

In the case of GCAGAGCAAUAUUACGUAAG, the “self-splicing fitness (ln)” value (30 °C) was -1.79 ± 0.16 and the “self-splicing fitness (ln)” value (37 °C) is -1.88 ± 0.23.

For the sequence GGAAAGCAAUAUUACGGAUU, the “self-splicing fitness (ln)” value is, setting by setting: (30 °C) -1.93 ± 0.085; (37 °C) -0.946 ± 0.11.

Regarding UACUAGCAAUAUUACGAGUA, the “self-splicing fitness (ln)” value was -2.36 ± 0.18 (30 °C) and -1.77 ± 0.19 (37 °C).

As for GGUUAGCAAUAUUACGGGUC, the “self-splicing fitness (ln)” value (30 °C) is -2.03 ± 0.24 and the “self-splicing fitness (ln)” value (37 °C) was -0.805 ± 0.18.

In the case of GGUUAGCAAUAUUACGAUCG, the “self-splicing fitness (ln)” value reads like this: (30 °C) -0.314 ± 0.14; (37 °C) -0.207 ± 0.27.

For UAAAAGCAAUAUUACGGGAU, the “self-splicing fitness (ln)” value is -3.01 ± 0.27 (30 °C) and -2.23 ± 0.18 (37 °C).

As for UUCCAGCAAUAUUACGAGCA, the “self-splicing fitness (ln)” value was -1.08 ± 0.098 (30 °C) and -0.767 ± 0.13 (37 °C).

In the case of CAAUAGCAAUAUUACGUGUU, the “self-splicing fitness (ln)” value was -4.08 ± 0.16 (30 °C) and -2.95 ± 0.17 (37 °C).

As for CUCUAGCAAUAUUACGGGUA, the “self-splicing fitness (ln)” value reads like this: (30 °C) -2.21 ± 0.14; (37 °C) -1.05 ± 0.12.

As to GUUGAGCAAUAUUACGCCCU, the “self-splicing fitness (ln)” value runs as follows: (30 °C) -1 ± 0.19; (37 °C) 0.108 ± 0.25.

Consider AGAUAGCAAUAUUACGUGGU, for which the “self-splicing fitness (ln)” value is -3.03 ± 0.11 (30 °C) and -2.27 ± 0.15 (37 °C).

As for CGUUAGCAAUAUUACGAAUC, the “self-splicing fitness (ln)” value (30 °C) was -2.95 ± 0.28 and the “self-splicing fitness (ln)” value (37 °C) was -2.42 ± 0.3.

For the sequence GCUGAGCAAUAUUACGUUGC, the “self-splicing fitness (ln)” value is, setting by setting: (30 °C) -4.04 ± 0.2; (37 °C) -2.53 ± 0.17.

Regarding AUCAAGCAAUAUUACGACAA, the “self-splicing fitness (ln)” value is, setting by setting: (30 °C) -1 ± 0.12; (37 °C) -0.427 ± 0.12.

With GACAAGCAAUAUUACGAGCA, the “self-splicing fitness (ln)” value by setting is: (30 °C) -1.12 ± 0.093; (37 °C) -0.355 ± 0.092.

As for AUUGAGCAAUAUUACGACUA, the “self-splicing fitness (ln)” value was -1.2 ± 0.42 (30 °C) and -1.89 ± 0.41 (37 °C).

In the case of UUCUAGCAAUAUUACGCAAG, the “self-splicing fitness (ln)” value was -2.26 ± 0.35 (30 °C) and -0.437 ± 0.34 (37 °C).

UUAGAGCAAUAUUACGAAUG: the “self-splicing fitness (ln)” value is, setting by setting: (30 °C) -2.2 ± 0.14; (37 °C) -2.55 ± 0.26.

With UUCAAGCAAUAUUACGGUCC, the “self-splicing fitness (ln)” value is, setting by setting: (30 °C) -1.46 ± 0.25; (37 °C) -2.3 ± 0.42.

For the sequence UUCGAGCAAUAUUACGAUGU, the “self-splicing fitness (ln)” value is, setting by setting: (30 °C) -3.71 ± 0.46; (37 °C) -2.7 ± 0.25.

Consider CUUGAGCAAUAUUACGCGUG, for which the “self-splicing fitness (ln)” value runs as follows: (30 °C) -2.84 ± 0.18; (37 °C) -0.143 ± 0.11.

As to CCCUAGCAAUAUUACGAUCC, under “37 °C”, the “self-splicing fitness (ln)” value was -1.26 ± 0.45.

As for GAACAGCAAUAUUACGGGUC, the “self-splicing fitness (ln)” value is -2.3 ± 0.19 (30 °C) and -3 ± 0.27 (37 °C).

Take UUGAAGCAAUAUUACGAUGC: the “self-splicing fitness (ln)” value was -4.76 ± 0.39 (30 °C) and -1.58 ± 0.24 (37 °C).

As for UAGUAGCAAUAUUACGUACU, the “self-splicing fitness (ln)” value (30 °C) was -0.816 ± 0.12 and the “self-splicing fitness (ln)” value (37 °C) was -0.109 ± 0.12.

In the case of GGACAGCAAUAUUACGAUUU, the “self-splicing fitness (ln)” value was 0.167 ± 0.047 (30 °C) and 0.417 ± 0.065 (37 °C).

As for CAUCAGCAAUAUUACGGGCC, the “self-splicing fitness (ln)” value (30 °C) is -3.02 ± 0.45 and the “self-splicing fitness (ln)” value (37 °C) was -2.29 ± 0.47.

Take CCUAAGCAAUAUUACGCAGC: the “self-splicing fitness (ln)” value runs as follows: (30 °C) -3.07 ± 0.29; (37 °C) -2.46 ± 0.24.

GCAGAGCAAUAUUACGCCGU: the “self-splicing fitness (ln)” value is -1.7 ± 0.15 (30 °C) and -2.65 ± 0.41 (37 °C).

As for AGUUAGCAAUAUUACGGGUC, the “self-splicing fitness (ln)” value (30 °C) was -1.99 ± 0.33.

With CUCGAGCAAUAUUACGUGUC, the “self-splicing fitness (ln)” value (37 °C) is -2.76 ± 0.27.
